The text below walks through data of US20240002500A1 (GUANGDONG FAPON BIOPHARMA, published 2024).

Substitutions are numbered along the chain they refer to.

Experiment [1] addresses T1, full-length human TIGIT on cells (human, UniProt Q495A1 22-244).
T1 construct: whole, on cells; The same protein is used for CHO-hTIGIT, PBMC and NK92-hTIGIT; the cells are named under assay; also called CHO-hTIGIT; hTIGIT
T1 sequence (looked up): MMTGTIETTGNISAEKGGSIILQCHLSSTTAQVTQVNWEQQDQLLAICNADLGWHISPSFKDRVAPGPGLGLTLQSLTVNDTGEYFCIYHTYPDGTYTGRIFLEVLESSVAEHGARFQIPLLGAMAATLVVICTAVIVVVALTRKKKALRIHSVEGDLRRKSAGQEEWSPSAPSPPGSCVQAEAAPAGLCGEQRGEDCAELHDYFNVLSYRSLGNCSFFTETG
The experiment is described as follows: FACS titration on CHO-hTIGIT cells, PE goat anti-mouse IgG. The protocol:
(§1) The CHO-engineered cells CHO-hTIGIT cells recombinantly expressing full-length human TIGIT to be detected were counted, centrifuged at 300 g for 5 min, resuspended in an FCM buffer and cell density was adjusted to 4E+06 cell/mL for later use. A sample to be detected (including a positive control antibody and a mouse monoclonal antibody) was diluted with the FCM buffer to 20 μg/mL, and then the FCM buffer was used to perform 3× serial dilutions of 12 concentration points; and the isotype control antibody was diluted with the FCM buffer to 20 μg/mL. According to an experimental design, in each well, 50 μL of the antibody and 50 μL of the cell (the amount of each cell added into a 96-well V-shaped plate being 2E+05 cells/well) were respectively added in the 96-well V-shaped plate; and incubation in dark was performed on ice for 30 min. Centrifugation (300 g/5 min) was performed; supernatant was discarded; 200 μL of the FCM buffer was added for washing once; centrifugation (300 g/5 min) was performed; and the supernatant was discarded. […] Centrifugation (300 g/5 min) was performed; supernatant was discarded; 200 μL of the FCM buffer was added once for washing once; centrifugation (300 g/5 min) was performed; and the supernatant was discarded. 100 μL of the 1×PBS was added for resuspending, and on-machine detection was performed.

Experiment [2] addresses T2, human Tigit extracellular domain recombinant protein hTigit-his (Acrobiosystem, Cat.TIT-H2H3) (human, UniProt Q495A1 22-141).
T2 construct: extracellular domain; Bought; not shown: his tag
T2 sequence (looked up): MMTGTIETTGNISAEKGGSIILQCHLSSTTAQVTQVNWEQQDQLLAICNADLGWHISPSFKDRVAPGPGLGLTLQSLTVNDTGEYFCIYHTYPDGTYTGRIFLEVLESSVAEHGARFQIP
The experiment is described as follows: BLI epitope binning (ForteBIO QKe), hTigit-his on anti-Penta-HIS sensor; competitor R0223. The protocol:
Epitope competition analysis was performed on an anti-human TIGIT antibody with an MD ForteBIO QKe platform. An experimental method included: a human Tigit extracellular domain recombinant protein hTigit-his (Acrobiosystem, Cat.TIT-H2H3, lot-1336-76GF1-F9) carrying a his tag was diluted with an equilibration buffer (1×PBS+0.02% Tween 20), until the final concentration was 1.5 μg/ml. The anti-human Tigit antibody was diluted with the equilibration buffer (1×PBS+0.02% Tween 20), the final concentration being 5 μg/ml. After an anti-Penta-HIS biosensor (ForteBIO, Cat. 18-5122) was fully hydrated, first the hTigit-his recombinant protein was solidified for 180 seconds, then equilibrated for 30 seconds, and bound to the first anti-human Tigit antibody for 180 seconds, then equilibrated for 30 seconds, and then bound to the second anti-human Tigit antibody, binding time being 300 seconds. The whole reaction was performed at 25° C. and 1000 rpm; and finally, Octet analysis software was used to perform epitope binning analysis.
Background: In BLI a coated tip is dipped into the sample, and binding shifts an interference pattern.

Experiment [3] addresses T1, full-length human TIGIT on cells. The experiment is described as follows: FACS titration on CHO-hTIGIT cells; table under the plot, unit taken from the x axis Log[nM]. The protocol:
as §1

In experiment [4] the target is T3, hTIGIT-hFc (human, UniProt Q495A1 22-141).
T3 construct: also called antigen protein hTIGIT-hFc; human TIGIT recombinant protein carrying a human Fc tag; not shown: human Fc tag
T3 sequence (looked up): T2 sequence (looked up)
The experiment is described as follows: FACS blocking on U2-OS cells; second row of the table; unit from the y axis. The protocol:
(§2) U2-OS cells to be detected (human osteosarcoma cells, naturally and highly expressing PVR and CD112 by means of detection) were counted; centrifugated at 300 g for 5 min; resuspended with an FCM buffer; and cell density was adjusted to 4E+06 cell/mL for later use. […] According to an experimental design, in each well, 50 μL of the antigen protein and 50 μL of the cell (the volume of each cell added into a 96-well V-shaped plate being 2E+05 cell/well) were respectively added in the 96-well V-shaped plate; and incubation was performed in dark on ice for 30 min. Centrifugation (300 g/5 min) was performed; supernatant was discarded; 200 μL of the FCM buffer was added for washing once; centrifugation (300 g/5 min) was performed; and the supernatant was discarded. The antibody was added to the 96-well V-shaped plate (in 100 μL/well); and incubation was performed in dark on ice for 30 min. Centrifugation (300 g/5 min) was performed; supernatant was discarded; 200 μL of the FCM buffer was added for washing once; centrifugation (300 g/5 min) was performed; and the supernatant was discarded. Secondary antibodies (APC anti-human IgG Fc, 1:500 dilution) were added to the 96-well V-shaped plate (in 100 μL/well); and incubation was performed in dark on ice for 30 min. Centrifugation (300 g/5 min) was performed; supernatant was discarded; 200 μL of the FCM buffer was added for washing once; centrifugation (300 g/5 min) was performed; and the supernatant was discarded. 100 μL of the 1×PBS was added for resuspending, and on-machine detection was performed.

For experiment [5], the target named is T4, human Tigit extracellular domain recombinant protein hTigit-his (self-produced) (human, UniProt Q495A1 22-141).
T4 construct: extracellular domain; Self-produced; used in the KD analysis of Embodiment 4; also called human Tigit recombinant protein; not shown: his tag
T4 sequence (looked up): T2 sequence (looked up)
The experiment is described as follows: BLI (ForteBIO QKe), hTigit-his on anti-Penta-HIS sensor, antibody in solution. As for the experimental part:
Binding kinetic constant analysis was performed on an anti-hTigit antibody and hTigit with an MD ForteBIO QKe platform.

Experiment [6] deals with T3, hTIGIT-hFc. The experiment is described as follows: FACS blocking: hTIGIT-hFc bound on U2-OS cells (PVR and CD112), then antibody, APC anti-human IgG Fc; first row of the table, row head not given; unit from the x axis Log[µg/mL]. As for the experimental part: as §2

Usually EC50 stands for the concentration giving half of the maximal effect. Read a low EC50 as higher potency in that assay. By Kd is commonly meant the free concentration of one partner at which half of the binding sites on the other are occupied at equilibrium, for simple one-to-one binding. Broadly, the IC50 is the concentration at which inhibition is half-maximal. Read a low IC50 as greater potency.

B1: 3Tigit-16 mouse monoclonal antibody (antibody, V domains shown)
VH: EVQLQQSGPELVKPGASVKMSCKASGFTFTDYFMDWVKQSRGASFEWIGRLNPNNGRTSYNQKFKGKATLTVDKSSSTAYMELNSLTSEDSAVYYCARGDLGRWYFDVWGAGTTVTVSS
VL: QIVLTQSPAIMSASPGEKVTMTCSASSSVSYMHWYQQKSGTSPKRWIYDTSKLASGVPTRFSGSGSGTSYSLTISSMEAEDAASYFCQQWSSNSLTFGAGTKLELKR
notes: Mouse monoclonal antibody from hybridoma
In the case of B1, the values for the EC50 in experiment [1] and in experiment [3] were 0.383 nM and 0.294 nM, respectively. In addition, the “epitope binning signal (name and unit not given)” value in experiment [2] was found to be 0.008. In addition, the “Span (row head not given)” value in the experiment with hTIGIT-hFc [4] was 580 MFI-APC. The Kd in experiment [5] worked out at 0.202 nM. The molecule also registered an IC50 with hTIGIT-hFc [6] of 0.636 µg/mL.

B2: 3Tigit-29 mouse monoclonal antibody (antibody, V domains shown)
VH: EVQLQQSGPELVKPGASVKISCKASGYTFTDYNMHWVKQSLGKSLEWIGYVNSFNGNTGYSQKFKSKVTLTVDRSSRTAYMDLRSLTSEDSAVFYCARSSRGGFAYWGQGTLVTVSA
VL: B1 VL with T59A, G65V, S84T, F86Y
notes: as for B1
B2: the EC50 in experiment [1] was 0.388 nM; in experiment [3], 0.31 nM. For the same molecule, the “epitope binning signal (name and unit not given)” value in experiment [2] is -0.0018. The “Span (row head not given)” value with hTIGIT-hFc [4] came out at 585 MFI-APC. Further, in experiment [5], the Kd stood at 0.155 nM. The molecule further returned an IC50 with hTIGIT-hFc [6] of 0.628 µg/mL.

B3: 14Tigit-1-1 mouse monoclonal antibody (antibody, V domains shown)
VH: DVQLQESGPGLVKPSQSLSLTCTVTGYSITSDYAWNWIRQFPGNKLEWMGYISYSGSTRSNPSLKSRISITRDTSKNQFFLQLNSMTAEDTATYYCGGWEVRNYYAMDYWGQGTSVTVSS
VL: DIVMTQSHKFMSTSVGDRVSITCKASQHVSTAVAWYQQKPGQSPKLLIYSASYRYTGVPDRFTGSGSGTDFTFTISSVQAEDLAVYYCQQHYNTPWTFGGGTKLEIKR
notes: as for B1
The molecule B3 registered an EC50 in experiment [1] of 0.452 nM. The Kd in experiment [5] came to 0.172 nM.

B4: 3Tigit-12 mouse monoclonal antibody (antibody, V domains shown)
VH: QVQLQQSGAELVRPGTSVKMSCKAAGYTFTNYWIGWVKQRPGHGLEWIGDIYPGGGYTNYDEKFKGKATLTADTSSRTAYMQLSSLTSEDSAIYHCVNGGYGSTYGYFDVWGAGTTVTVSS
VL: DIVMSQSPSSLPVSVGEKVTMSCKSSQSLLFSSDQKNYLAWYQQKPGQSPKLLIYWASTRESGVPDRLTGSGSGTDFTLTISSVKAEDLAVYYCQQYHKYPFTFGGGTKLEIKR
notes: as for B1
For B4, the midpoint of the response in experiment [1], the EC50, lay at 0.473 nM. For the same molecule, the “epitope binning signal (name and unit not given)” value in experiment [2] stood at 0.01. The “Span (row head not given)” value with hTIGIT-hFc [4] stood at 555 MFI-APC. Besides, the Kd in experiment [5] was found to be 0.119 nM. In the experiment with hTIGIT-hFc [6], this molecule gave an IC50 of 0.543 µg/mL.

B5: Tigit-5 mouse monoclonal antibody (antibody, V domains shown)
VH: QVQLQQPGAELVRPGASVKLSCKASGYSFTSYWMNWVKQRPGQGLEWIGMIRPSDSETRLNQMFKDKATLTVDKSSSTAYMQLSSPTSDDSAVYYCAGIHDYGHGAYWGQGTLVTVSA
VL: DIQMIQSPASLSVSVGETVTITCRASENIYSNLAWYQQKQGKSPQLLVYAASHLPDGVPSRFSGSGSGTQYSLKINSLQSEDFGSYYCQHFWGTPRTFGGGTKLEIKR
notes: as for B1
Take B5: the EC50 in experiment [1] came to 0.197 nM; in experiment [3] it was 0.256 nM. Further, in experiment [2], the “epitope binning signal (name and unit not given)” value is 0.0443. Moreover, in experiment [5], the Kd stood at 0.0605 nM.
